Data on ten molecules can be found in PMC8914392, “Biochemical and structural characterizations of thioredoxin reductase selenoproteins of the parasitic filarial nematodes Brugia malayi and Onchocerca volvulus” (Redox Biology, 2022).

The test system of data set [1] is T1, OvTrxR (isoform D).
T1 construct: gene TrxR; pABC2a, N-terminal His-SUMO tag removed; E. coli C321.deltaA; Sec enriched; homodimer
Briefly: TNB formation at A412. It counts as biochemical, Onchocerca volvulus. Particulars: 250 μM NADPH, 10 nM enzyme, pH 7.5. From the text:
TNB formation at A412 on OvTrxR (isoform D)

Data set [2] concerns the target T2, hTrxR1 (Homo sapiens, UniProt Q16881).
T2 construct: gene TXNRD1; recombinant selenoprotein, GCUG C-terminus, cytosolic form; homodimer
T2 sequence (Q16881 151-649): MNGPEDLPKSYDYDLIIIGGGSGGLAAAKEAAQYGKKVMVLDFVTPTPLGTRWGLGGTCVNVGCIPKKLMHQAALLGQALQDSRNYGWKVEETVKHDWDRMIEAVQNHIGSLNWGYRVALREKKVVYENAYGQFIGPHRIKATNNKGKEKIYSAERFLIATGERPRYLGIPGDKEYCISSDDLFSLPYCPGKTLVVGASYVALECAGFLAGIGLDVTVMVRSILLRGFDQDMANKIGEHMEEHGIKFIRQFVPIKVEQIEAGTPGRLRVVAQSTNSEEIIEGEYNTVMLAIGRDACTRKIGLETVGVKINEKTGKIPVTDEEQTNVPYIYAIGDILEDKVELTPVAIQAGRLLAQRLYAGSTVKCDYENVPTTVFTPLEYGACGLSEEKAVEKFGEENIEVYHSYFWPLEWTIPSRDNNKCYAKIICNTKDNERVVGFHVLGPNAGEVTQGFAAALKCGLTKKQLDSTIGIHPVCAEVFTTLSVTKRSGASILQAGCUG
Briefly: TNB formation at A412. It counts as biochemical. The following applies: NADPH, pH 7.5. From the text:
TNB formation at A412 on hTrxR1

For data set [3], the target named is T3, BmTrxR (isoform D) (Brugia malayi, UniProt A0A1I9G0T9).
T3 construct: gene bma-trxr-1; full-length isoform D, 598 residues, Grx-like domain 1-102 and TrxR domain 103-598, Sec at 597; pABC2a, N-terminal His-SUMO tag removed; E. coli C321.deltaA; homodimer
T3 sequence (A0A1I9G0T9 116-713): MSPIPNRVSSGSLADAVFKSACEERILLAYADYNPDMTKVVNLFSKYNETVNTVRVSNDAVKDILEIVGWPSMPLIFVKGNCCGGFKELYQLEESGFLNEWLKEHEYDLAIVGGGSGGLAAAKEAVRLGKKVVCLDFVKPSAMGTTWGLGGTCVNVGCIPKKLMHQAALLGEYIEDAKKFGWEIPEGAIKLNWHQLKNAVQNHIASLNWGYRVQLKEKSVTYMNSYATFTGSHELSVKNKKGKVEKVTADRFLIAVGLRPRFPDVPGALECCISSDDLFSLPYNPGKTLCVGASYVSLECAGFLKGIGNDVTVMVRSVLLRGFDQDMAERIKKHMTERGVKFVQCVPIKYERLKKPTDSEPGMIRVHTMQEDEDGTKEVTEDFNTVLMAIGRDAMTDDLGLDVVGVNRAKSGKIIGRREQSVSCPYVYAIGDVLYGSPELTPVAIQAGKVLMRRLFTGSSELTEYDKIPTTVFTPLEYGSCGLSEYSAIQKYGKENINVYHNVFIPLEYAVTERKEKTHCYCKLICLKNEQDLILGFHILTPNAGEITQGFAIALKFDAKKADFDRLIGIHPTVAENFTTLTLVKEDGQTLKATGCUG
Briefly: DTNB reduction, A412, dose-response fit. It counts as biochemical. The following applies: for IC50: read-out: Apparent IC50 (μM) ^a. The source says: DTNB reduction, A412, dose-response fit on BmTrxR (isoform D)

In data set [4] the test system is T1, OvTrxR (isoform D). Briefly: DTNB reduction, A412, dose-response fit. In kind it is biochemical, Onchocerca volvulus. The following applies: 25 nM enzyme, 30 min preincubation with 0.25 mM NADPH and 0.1 mg/ml BSA, 1 mM DTNB, pH 7.5; for IC50: read-out: Apparent IC50 (μM) ^a. The source says:
DTNB reduction, A412, dose-response fit on OvTrxR (isoform D)

Data set [5] deals with thioredoxin reductase from Onchocerca volvulus, isoform D (Onchocerca volvulus).
Data set [6] concerns the target thioredoxin reductase from Brugia malayi, isoform D (Brugia malayi).
Data set [7] deals with T3, BmTrxR (isoform D). Briefly: ThermoFAD. It counts as binding. The following applies: 1 mM NADPH; Tm without NADPH 64.5 °C.
Substrate in data set [8]: O=C(O)c1cc(SSc2ccc([N+](=O)[O-])c(C(=O)O)c2)ccc1[N+](=O)[O-]
Briefly: purified protein. The following applies: 250 μM NADPH, 20 nM enzyme, pH 7.5.

Where two headings read alike, the source gives them in different places.

`O=C(O)c1cc(SSc2ccc([N+](=O)[O-])c(C(=O)O)c2)ccc1[N+](=O)[O-]` [DTNB, 5,5′-dithiobis-(2-nitrobenzoic acid)]: the Km (as a rule, the concentration of substrate that gives half-maximal velocity) in data set [1] worked out at 170 ± 12 µM; in data set [2], 61 ± 8.4 µM.

Consider `COc1ccc([N+](=O)[O-])c(S(=O)(=O)c2ccc(Cl)cc2)n1` [TRi-1], for which the concentration for half-maximal inhibition (IC50) (in general, the concentration that gives 50% inhibition) amounted to 0.013 µM in data set [3] and 0.012 µM in data set [4].

Take “Brugia malayi thioredoxin 1 (natural protein)”: the figures for the Km of the reductase for the Trx, Trx-linked insulin disulfide reduction assay (NADPH consumption at A340) in data set [5] and in data set [6] were 2.4 µM and 2.7 µM, respectively.

As to “Brugia malayi thioredoxin 2 (natural protein)”, in data set [6], the Km of the reductase for the Trx, Trx-linked insulin disulfide reduction assay (NADPH consumption at A340) is 4.7 µM.

As to NADPH, the Tm in data set [7] was 48.3 ± 0.6 °C.

As for “Onchocerca volvulus thioredoxin 1 (natural protein)”, the Km of the reductase for the Trx, Trx-linked insulin disulfide reduction assay (NADPH consumption at A340) in data set [5] is 1.6 µM; in data set [6], 1.1 µM.

With “Onchocerca volvulus thioredoxin 2 (natural protein)”, the results for the Km of the reductase for the Trx, Trx-linked insulin disulfide reduction assay (NADPH consumption at A340) in data set [5] and in data set [6] were 4.5 µM and 9.6 µM, respectively.

As for TRi-2, the “Apparent IC50 (μM) ^a” value is 1.8 µM in data set [3] (25 nM enzyme, 30 min preincubation with 0.25 mM NADPH and 0.1 mg/ml BSA, 1 mM DTNB, pH 7.5, unreliable (above the printed inhibitor range 1 nM-1 μM)); 1.5 µM in data set [4] (unreliable (above the printed inhibitor range 1 nM-1 μM)).

As for auranofin, the IC50 in data set [3] (25 nM enzyme, 30 min preincubation with 0.25 mM NADPH and 0.1 mg/ml BSA, 1 mM DTNB, pH 7.5, covalent) was 0.0024 µM; in data set [4] (covalent) it was 0.0032 µM.

B1: BmTrxR (isoform D) (Brugia malayi) (protein)
chain: T3 sequence (A0A1I9G0T9 116-713)
Regarding B1, in data set [8], the Km came out at 70 ± 7.8 µM; the catalytic constant (kcat) (as a rule, the number of substrate molecules converted per active site and unit of time at saturation) is 20 ± 0.95 s⁻¹; the kcat/Km – broadly, the turnover number divided by the Michaelis constant – stood at 283000 M⁻¹ s⁻¹.
